Results from the DeepSol protein solubility set.

Assay: soluble on expression in E. coli; label from the status in PepcDB or PDB records

Sequence | soluble on expression in E. coli
MESQVRQNFHQDCEAGLNRTVNLKFHSSYVYLSMASYFNRDDVALSNFAKFFRERSEEEKEHAEKLIEYQNQRGGRVFLQSVEKPERDDWANGLEALQTALKLQKSVNQALLDLHAVAADKSDPHMTDFLESPYLSESVETIKKLGDHITSLKKLWSSHPGMAEYLFNKHTLG | soluble
MAHHHHHHMADVDEWRGASFKQEEDHSEATTSLLEKINATTIPVLLRSTNKSLQDLVDELLTLEKIARLGGDALSTQRLAVEVIRVYRVQGDYAKMLLVLEMLMRKRGQTKMTQSAMIAECAVMISDASLPKESRREVLERVVHLTDSRIHVELEHARFAIDLAKLMESEGQKRAACDLLSGLHVETITNMPRAEKLDALNCLIRLCLELEDYEHTPLVSRRINHRALARAESREAKLTYFELMRHYYTQRKSYFNVARCWYETYLTETEEGAKLAALSSMAVHYLIAEHATPKALEDLAECTAFSPATYFAERNAAIQGITTKLQKQLEDIPQLQYLLQRFTSIELIREKVAREVETLCANHPQLAGHEDRQLLLRSRCSEHDLLVVSRFYRRLRLDRLAQLVGLTPEHTEEFLMMMVASKTLYAKMDRVDGLVVFEAKKNATEVINGWNEAVERSVALLDKASHLIVKERMLHNISAARAQQAVTL | not soluble
MSLDAELVDWELAVTTAKKLVRPGPQRSRAEADEIVSELRRLAVVAEGHVQDYTQLVPAGPPTPIAVVDRPEWVRSNVAGLRVATMPLIEKLSDQSRGRLAAAVGRRVTGVQVGSALAYLAGKVLGQFEVFLPPEEYEAGSAASAPSLAKPGAPTPVGRLSLVAPNIAHAEETLRVVPRDFRLWVCLHEQTHRSQFTAVPWLREHLESEIAAFIGATDLDPDVLADRLRSAVTALRSAVRDHGPDTPSVVEALQTPAQRAVLDRLQALMSLLEGHADQVMDAVGPQVVPTVADIRGKFDNRRSGGSPIDRFLRRLLGLDLKMQQYRQGGAFVRAVVAEVGVEGFNHVWQSPRTLPTRPELTDPGAWMLRVLGTREGHHHHHH | soluble
MGSDKIHHHHHHMTWKSVNFDWNHIRAFLVTAEEGTLSAAAKALGLTQPTLSRQVSALETELCITLFERVGQRLVLTSSGLKLLEHARGMGDAALEFSLAVTGQSQKIEGSVIVSAGELTAAYMLPKIISKLRREEPGIDIEVVVTNEASDLKRREADIAIRSFHPTQNDLIAKKIGEEVIWLYGTPEYLDQLPTIPSFSELKDIQIIGFDRSNSLTDVLNKQGWQLSKKNFSLITSFQLLQLALCKEGQGVIFYPEQMGDQEPNLVRAYEHLGPVMKLPVWLVCHQELRTSLRVRRVFDFIATELSDNFY | not soluble
MTVTDHILPTATNGRPPGLIIAAPSTNSGKTTVTLALHAALRRRSLTVQPYKCGPDYIDPAFHEIAAGRPCYNLDSWAFGQDRITYLLDAAAGADLCLAEGVMGLFDGGSARGAWGNGATADIAAFTGWPVVLVIDVAGQAQSAAALALGFARYRSDVRIAGVILNNVASARHEALVRDGFAAQDIPVLGGFERQRDLTLKNRHLGLVQARETARLDIRLQQLADSAVRGIDLDALIRAAQPARPIASTIRPLTPPGQRIALAHDDAFSFIYPHLTAGWRAAGAEIVPFSPLNDEGPDPSCDAAWLPGGYPELHAGRLAAATRFKAALGAFAETRAVHGECGGYMTLGAGLIDADGTRHAMAGLLGLETDFASRKLHLGYRLATLHADAAGKAAGSVLRGHEYHYARVVTVADEPLAEIRDPAGQLTDETGSRRGHVTGTFFHLIDVAEEAIALEHHHHHH | not soluble
SNAMTHIQLDFSKTLEFFGEHELKQQQEIVKSIHKTIHEGTGAGSDFLGWVDLPVDYDKEEFSRIVEASKRIKENSDVLVVIGIGGSYLGARAAIEMLTSSFRNSNEYPEIVFVGNHLSSTYTKELVDYLADKDFSVNVISKSGTTTEPAVAFRLFKQLVEERYGKEEAQKRIFATTDKEKGALKQLATNEGYETFIVPDDVGGRYSVLTAVGLLPIATAGINIEAMMIGAAKAREELSSDKLEENIAYQYATIRNILYAKGYTTEMLINYEPSMQYFNEWWKQLFGESEGKDFKGIYPSSANYTTDLHSLGQYVQEGRRFLFETVVKVNHPKYDITIEKDSDDLDGLNYLAGKTIDEVNTKAFEGTLLAHTDGGVPNMVVNIPQLDEETFGYVVYFFELACAMSGYQLGVNPFNQPGVEAYKQNMFALLGKPGFEDLKKELEERL | soluble
IRRVLVPVDTSEERARNQAKYLTSLPNIPDSVEATVLFVFPHQDYKGAPSHDFEEVDAAVTAAEHLEAKGISVERVAVGGEVGRKILDAATDRDADSIVIGGRKRSGIANVLLGGTTQDIMLAAERPVTLTG | not soluble
MGSDKIHHHHHHMKKFTLDYLSPRVVFGAGTASALPDEIGRLGARRPLVLSSPEQRELAKDIVRPIGDRVAGYFDGATMHVPVDVIQKAERAFNDTDADSIIAIGGGSTTGLAKILSMNLDVPSLVIPTTYAGSEMTTIWGVTEGGMKRTGRDPKVLPKTVIYDPLLTVDLPLAISVTSALNAIAHAAEGLYSADLNPVLETMCKQGICALFDAIPRLVAKPTDAEARTDALFGAWMCGTALCHLGMGLHHKLCHTLGGTLNLPHAETHAIVLPHALAYNLPYAAPAERLLQEVAGSSDVPSALYDLARNAGAPLSLAEIGMRPEDIPRVRDLALRDQYPNPRPLESDALETLLVNAFRGRRPDFK | not soluble
MGSDKIHHHHHHMRTIDTIFSSEVNVPLYHYTGIGSLLGMANCKSVWASSISYMNDSKEIVHACETVENVLRARIVFGQKDEEHRFLEQLIEWTKSCSKVAHTMFVFSLSEKPSLLSQWRSYTPHGKGVSLEFSPNKVNEIARFTGMRIAKCVYDDREQEEIISILVEKLLVNFRQELPAMDITDKPPSQCYYDFINQYTSDIYQVLAIIKHGAFEEECEWRLISPHIPKFGDPRLKFREGASMLVPYIELPLGDKPFFRKIILGPSQHQNLNMSGLSMFMSNQGISNELLNCQIPYREW | not soluble
MRKAHIMGIEGVGMSALARLLMAEGVAVTGCDLAPGPRARRLGVPVHHGHDPGHLADEDTLVVPTPVPPDHPEVVEARKRGLRVLRRMELLAHFLAQRPSAGVTGTHGKTTTTGMLAAILLEAGLDPWVFLGGELALLPGNARPGRGPRVAEVDESDPLFREVRVSVAVATNLEADHVAPRGERAPNYHESLEALKEAMRGFLAGAKTVVVPAMDPGLLALTEGLPRRLFGPGGEVWAEAVDLSPSGASFRLVHREGPLGEVHLRVPGRHNVHNALAAALAALALGASPEAISRGLSRFPGVGRRFERVGEVGGAWVVDDYAHHPTEVQATLEAALLSGRRVRVFFQPHRLLRTQELWEAFAQALKGAHEVVVLPVYTAGERGRESPEALSDRIAKRLEDLGRPARRMDKEEALAYARATARPEDLLLFMGAGDVTLLARRLVHEG | soluble
MEEIDDKSKFKVPSWAAKPPNGAHLDVQKGDALIQKLLIDDKKAYYFGRNNKQVDFAVEHASCSRVHALLLYHGLLQRFALIDMDSSHGTFLGNVRLRPLEVVFMDPGTQFHLGASTRKYSVRLKTEHHVEDDPTVAASDEQLDHQTSYNTAQNRRIPQLPISVEEARRKKRPRGNVAFLEEEEVINPEDVDPSVGRFRNLVTTAIISTNPNKRPGDPKRSEPPRKIVRPGRELMSAPLSSTFGPMALNAAPDLELYGKLLPEPGHHQYVTSTATEDEADDHHKKRYAKEAWPGRKPGAGIF | soluble
MSLASFPHRNLTWNDINFVHTTDTHGWYSGHINQPLYHANWGDFISFTTHMRRIAHSRNQDLLLIDSGDRHDGNGLSDITSPNGLKSTPIFIKQDYDLLTIGNHELYLWENSKQEYETVVNHFQDKYVCSNVDIRLDNGLFVPLGLKYKYFTTPIRGIRVMAFGFLFDFKRFNSGTRVTPMAETIHEPWFQEALKHEVDLIIIVGHTPISHNWGEFYQVHQYLRQFFPDTIIQYFGGHSHIRDFTVFDSLSTGLQSGRYCETVGWTSVNLDKADLNLPVRQRFSRSYIDEGHHHHHH | not soluble
MNFVTLTSDEFNAFTTKHFSHYTQSAIHYNHRVDLKGDVHLVGVKDDNGQVIAGCLLTEARTLKFFKYFYTHRGPVMDYTNQSLVAFFFKALTSYLKKHNCLYVLVDPYLIENLRNADGEIVKSYDNRAFVRTMDKLGYKHQGFPVGYDSMSQIRWLSVLDLKDKTEDQLLKEMDYQTRRNIKKTYDIGVKTKTLTIDETQTFFDLFHMAEEKHGFKFRELPYFEEMQKLYDDHAMLKLAYIDLNEYLKTLQLKQQQLTAELSGVEEALEESPNSKKNKTKRTQLEQQLNSNKRKIDNTIEQIEQDGAVLNLASALFIYNEHEVYYLSSGSNPKYNAYMGAYHLQWEMIKFAKAHHIDRYNFYGITGDFSESSEDYGVQQFKKGFNAHVEEYIGDFIKPIKPLLYKVQTYLNHKRR | not soluble
HPMCKEHEDEKINIYCLTCEVPTCSMCKVFGIHKACEVAPLQSVFQGQKTE | soluble
MSPLSGSLAPLNMKGLVKFQDVSFAYPNHPNVQVLQGLTFTLYPGKVTALVGPNGSGKSTVAALLQNLYQPTGGKVLLDGEPLVQYDHHYLHTQVAAVGQEPLLFGRSFRENIAYGLTRTPTMEEITAVAMESGAHDFISGFPQGYDTEVGETGNQLSGGQRQAVALARALIRKPRLLILDQATSALDAGNQLRVQRLLYESPEWASRTVLLITHQLSLAERAHHILFLKEGSVCEQGTHLQLMERGGCYRSMVEALAAPSDAAAHHHHHH | soluble
MSLTIGIWILGDQLWSGQTALKSHQGDRSQVPVLLIESAEFARQRPYHRQKLVLVWSAMRHFAEDLRAEGWSVTYEIAADFLTPLHHWLKTQGVSHLQVMAPGDRPFEAWLKSLTLPCELTLLPNNHFLWSREDFSAWAGDRKRLLLEDFYRAGRKRWQILMVDDQPVGGRWNFDQDNRKPAKKNLSPPKPLSFPPDDITQQVIERIEQLNLPGYGQLSGFQWGEGHHHHHH | soluble
GSGNRTRKRRMINASVWMPPMENEEKNRKNHQSITSSQHSLLEASYDGYIKRQRNELQHYSLYPNPQGYGNGNDFLGDFNHTNLQIPTEPEPESPIKLHTEAAGSYAITEPITRESVNIIDPRHNRTVLHWIASNSSAEKSEDLIVHEAKECIAAGADVNAMDCDENTPLMLAVLARRRRLVAYLMKAGADPTIYNKSERSALHQAAANRDFGMMVYMLNSTKLKGDIEELDRNGMTALMIVAHNEGRDQVASAKLLVEKGAKVDYDGAARKDSEKYKGRTALHYAAQVSNMPIVKYLVGEKGSNKDKQDEDGKTPIMLAAQEGRIEVVMYLIQQGASVEAVDATDHTARQLAQANNHHNIVDIFDRCRPERE | soluble
MNKELTFNDLPMVVAQLRDEVVGMKQMIVSLQSQNKPHKANTHIPMSVEEASAYLKMPMATLYMKLGNGSIPATKPGKRYCLYQDELDKWLETNRKNPVPLTAEEENAAILAGNKRKPKPLNW | not soluble
KPEWMMIHRILNHSVDKKGHVHYLIKWRDLPYDQASWESEDVEIQDYDLFKQSYWNH | soluble
MGHHHHHHSHMTLEELVACDNAAQKMQTVTAAVEELLVAAQRQDRLTVGVYESAKLMNVDPDSVVLCLLAIDEEEEDDIALQIHFTLIQSFCCDNDINIVRVSGNARLAQLLGEPAETQGTTEARDLHCLPFLQNPHTDAWKSHGLVEVASYCEESRGNNQWVPYISLQER | soluble
MGSDKIHHHHHHMTEKTTAELENLRGLIDGVDSQLLSLLRKRLDLVAQVGTVKHAAGLPIYAPAREAAMLGKRRAEAEAMGVSPQLIEDILRRLMRESYMSEKDVGFKQVNPELGHIVIIGGQGQLGRLFAQMFALSGYEVRLLDKDDWDHADELFDGAGLVLVTVPIATTCSLIRERLDHLPEHCILADLTSVKGAPLKAMLETHKGPVVGLHPMFGPDVGSLAKQVVVVCHGRAPEKYQWLMEQIGIWGARLVEADAGRHDKAMQLVQAMRHFSSFVYGLNLCREQADIDTLLEFSSPIYRLELAMVGRLFAQSGELYADIIFAQEESLTAISDFIDNYRDALELLKTGDRAGFIARFNEVSNWFGNYSQQFLTESRAMLQSVNDMRSV | not soluble
